Assay [1] concerns the target T1, Recombinant human Angiopoietin-4 (R&D Systems Cat No 964-AN/CF) (human, UniProt Q9Y264 25-503, limits assumed).
T1 construct: Bought reagent; also called Ang4
T1 sequence (looked up): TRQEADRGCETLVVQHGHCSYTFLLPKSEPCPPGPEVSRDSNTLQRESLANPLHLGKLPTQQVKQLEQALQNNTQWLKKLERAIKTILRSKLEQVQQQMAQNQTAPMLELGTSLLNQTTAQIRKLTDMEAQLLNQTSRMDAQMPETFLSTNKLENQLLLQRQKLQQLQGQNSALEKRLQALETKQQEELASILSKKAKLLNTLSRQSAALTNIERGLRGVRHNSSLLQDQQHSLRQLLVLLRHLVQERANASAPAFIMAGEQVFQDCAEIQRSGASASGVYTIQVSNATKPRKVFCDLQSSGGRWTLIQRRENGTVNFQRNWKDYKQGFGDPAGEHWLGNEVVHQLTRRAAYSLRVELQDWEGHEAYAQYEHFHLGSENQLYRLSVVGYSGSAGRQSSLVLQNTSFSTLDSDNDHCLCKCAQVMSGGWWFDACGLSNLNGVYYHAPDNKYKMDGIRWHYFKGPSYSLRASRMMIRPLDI
Description: phage ELISA on coated Ang4: 10 ul monoclonal phage supernatant in 100 ul, anti-M13-HRP, OD 450 nm.

Assay [2] concerns the target T2, recombinant human Tie2/Fc Chimera (R&D Systems Cat No 313-TI, Lot No BKC06) (human, UniProt Q02763 23-745).
T2 construct: Bought reagent; also called receptor; not shown: Fc portion of the bought chimera
The assay can be described thus: competition ELISA: 0.2 ug/ml Tie2/Fc pre-incubated with 10 ul periplasmic extract, then on coated Ang1 (0.75 ug/ml); bound Tie2/Fc detected with anti-human IgG-HRP; blocked ligand: Ang1. On the procedure:
Clones tested positive in the Tie2 binding assay are screened for their ability to block Ang1 binding to Tie2/Fc. For this, Nanobody-containing periplasmic extracts (P.E.) are used in an ELISA-based ligand competition setup. In short, 0.75 ug/ml human Ang1 (R&D Systems Cat No 923-AN/CF Lot No FHWO73091) is coated in 96 well Maxisorp microtiter plates (Nunc) and blocked with 4% Marvel skimmed milk in PBS. In parallel, 0.2 ug/ml Tie2/Fc is incubated with 10 ul of periplasmic extract P.E. containing nanobody of the different clones in 100 ul 2% Marvel/PBS. After 1 hour, the receptor-Nanobody pre-mixes are incubated 1 hour with the coated ligand. Bound Tie2/Fc is detected using HRP-conjugated goat anti-human IgG (Jackson Immunoresearch, Cat #109-035-098). Blocking activity is determined as loss of OD signal, as compared to wells where no P.E., or irrelevant P.E., has been added.

Assay [3] addresses T3, Recombinant human Angiopoietin-2 (R&D Systems Cat No 623-AN/CF) (human, UniProt O15123 19-496, limits assumed).
T3 construct: Bought reagent; also called Ang2; human Ang2
T3 sequence (looked up): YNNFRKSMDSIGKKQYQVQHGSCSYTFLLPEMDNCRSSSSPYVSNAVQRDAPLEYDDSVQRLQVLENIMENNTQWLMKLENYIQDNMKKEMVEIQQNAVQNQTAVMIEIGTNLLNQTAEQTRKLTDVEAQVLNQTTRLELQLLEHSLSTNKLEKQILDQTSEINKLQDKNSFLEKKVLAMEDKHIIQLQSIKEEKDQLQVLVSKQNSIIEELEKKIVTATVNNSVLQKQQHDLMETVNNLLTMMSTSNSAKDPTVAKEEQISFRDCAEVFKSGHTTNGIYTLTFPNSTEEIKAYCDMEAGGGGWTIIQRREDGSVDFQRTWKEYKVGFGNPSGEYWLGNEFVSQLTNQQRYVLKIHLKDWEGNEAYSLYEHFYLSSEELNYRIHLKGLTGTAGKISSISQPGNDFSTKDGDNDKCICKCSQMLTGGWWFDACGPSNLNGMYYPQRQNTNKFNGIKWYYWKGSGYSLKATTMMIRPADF
The assay can be described thus: phage ELISA: 10 ul monoclonal phage supernatant in 100 ul on 0.2 ug/ml coated Ang2, anti-M13-HRP, OD 450 nm. Here is the method: In order to determine binding specificity to Ang2, the clones are tested in an ELISA binding assay setup, using the monoclonal phage pools. Phage binding to Ang2 (R&D Systems Cat No 623-AN/CF) is tested. Shortly, 0.2 ug/ml Ang2 is immobilized on Maxisorp ELISA plates (Nuns) and free binding sites are blocked using 4% Marvel skimmed milk in PBS. Next, 10 ul of supernatant from the monoclonal phage inductions of the different clones in 100 ul 2% Marvel. PBS are allowed to bind to the immobilized antigen. […] Binding specificity is determined based on OD values compared to controls having received an irrelevant phage or no phage.

T2 sequence (Q02763 23-745, change not shown): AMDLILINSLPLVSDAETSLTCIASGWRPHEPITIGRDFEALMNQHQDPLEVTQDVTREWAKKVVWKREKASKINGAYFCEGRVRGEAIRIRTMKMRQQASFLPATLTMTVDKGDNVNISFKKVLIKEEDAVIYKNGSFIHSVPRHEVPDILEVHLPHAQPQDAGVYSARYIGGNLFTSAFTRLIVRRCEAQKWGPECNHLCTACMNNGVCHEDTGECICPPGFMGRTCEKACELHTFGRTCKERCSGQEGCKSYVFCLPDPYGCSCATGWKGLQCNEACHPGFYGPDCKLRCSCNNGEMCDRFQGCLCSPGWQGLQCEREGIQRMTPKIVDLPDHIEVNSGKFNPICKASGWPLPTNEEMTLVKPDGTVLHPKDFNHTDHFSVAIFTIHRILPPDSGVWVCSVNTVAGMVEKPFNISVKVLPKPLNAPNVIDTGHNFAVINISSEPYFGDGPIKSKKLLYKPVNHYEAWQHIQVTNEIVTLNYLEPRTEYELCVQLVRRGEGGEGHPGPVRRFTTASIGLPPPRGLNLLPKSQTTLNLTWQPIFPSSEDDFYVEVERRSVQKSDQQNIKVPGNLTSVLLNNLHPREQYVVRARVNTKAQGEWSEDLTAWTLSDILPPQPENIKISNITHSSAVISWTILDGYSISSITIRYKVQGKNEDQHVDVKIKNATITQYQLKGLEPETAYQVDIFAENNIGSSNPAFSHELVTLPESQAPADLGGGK

B1: 169-F11 (VHH)
VHH: EVQLVESGGGLVQPGGSLRLSCATSGFTFSTSWMYWLRQAPGKGLEWVSTITPRGLTDYTNSVKGRFTVSRDNAKNTLYLQMNSLKSEDTAVYYCTKDKNGPPMGQGTQVTVSS
notes: Nanobody
Take B1: the binding result in assay [1] was “binds”.

B2: 169-C8 (VHH)
VHH: EVQLVESGGGLVQPGGSLRLSCATSGFTFSTSWMYWLRQAPGKGLEWVSTITPRGLTDYTDSVKGRFTISRDSAKNTLYLQMNSLKSEDTADYYCTRDKNGPPMGQGTQVTVSS
notes: Nanobody
B2: the binding result in assay [1] is reported as “binds”.

B3: 169-A10 (VHH)
VHH: EVQLVESGGGLVQPGGSLRLSCATSGFTFSPSWMYWLRQAPGKGLEWVSTITPRGLTEYANSVKGRFTISKDNAKNTLYLQMNSLKSEDTAVYYCTRDKNGPPMGQGTQVTVSS
notes: Nanobody
Regarding B3, in assay [1], the binding result was “binds”.

B4: 163-H8 (VHH)
VHH: EVQLVESGGGLVQPGGSLRLSCAASGFTFGSNGMRWVRQAPGKGPEWVSSINSDGTSTYYAESVKGRFTISRDNAKNTLYLQMHSLKPEDTAVYYCTTTENPNPRGPGTQVTVSS
notes: Nanobody
Turning to B4, the binding result in assay [2] is on record as “binds”.

B5: 163-E9 (VHH)
VHH: EVQLVESGGGLVQPGDSLRLSCAASGFTFGSNGMRWVRQAPGKGPEWVSSINSDGTSTYYADSVKGRFTISRDNAKNTLCLQMNSLKPEDTAVYYCTTTEDPYPRGQGTQVTVSS
notes: Nanobody; also called Nanobody 163E9; Tie-2 Nanobody 163E9
On to B5, for which the binding result in assay [2] is given as “binds”.

B6: 163-G8 (VHH)
VHH: EVQLVESGGGLVQPGGSLRLSCAASGFTFGSNGMRWVRQAPGKGPEWVSSINSDGTSAFYAESVKGRFTISRDNAKNTLYLQMNSLKPEDTAVYYCTTTMNPNPRGQGTQVTVSS
notes: Nanobody
In the case of B6, the binding result in assay [2] is given as “binds”.

B7: 168-G3 (VHH)
VHH: EVQLVESGGGLVQPGGSLRLSCAASGSTLDYYAIGWYRQAPGKEREWVSCISSSNYGITTYADSVKGRFTISRDNAKNTVYLQMNSLKPEDTAIYYCATNTRRKYGRLCDLNADYWGQGTQVTVSS
notes: Nanobody
For the molecule B7, the binding result in assay [1] was “binds”.

B8: 168-A3 (VHH)
VHH: EVQLVESGGGLVQPGGSLRLSCAASGFTLSGNWMYWLRQAPGKGLEWISTITPRGLTAYADSVKGRFTISRDIAENTLYLQMNSLKSGDTAVYYCARDKTGERRGQGTQVTVSS
notes: Nanobody
Turning to B8, in assay [1], the binding result is recorded as “binds”.

B9: 168-E5 (VHH)
VHH: EVQLVESGGGLVQPGGSLRLSCAASGFTLSSNWMYWLRQAPGKGLEWISTITPRDLTAYADSVKGRFTISRDNAENTLYLQMNSLKSEDTAVYYCAKDKAGERRGQGTQVTVSS
notes: Nanobody
With B9, in assay [1], the binding result was “binds”.

B10: 169-A12 (VHH)
VHH: EVQLVESGGGLVQPGGSLRLSCVASGSIRSIIHMGWYRQAPGNERDLVAVIIDSRTTKYSESVKGRFTISRDNAKNTVYLQMNSLKPEDTAVYYCNALALGTDQSSTFDSWGQGTQVTVSS
notes: Nanobody
In the case of B10, the binding result in assay [1] is listed as “binds”.

B11: 169-C12 (VHH)
VHH: EVQLVESGGGLVQPGGSLRLSCAASGSIRSIIHMGWYRQTPGNERDMVAVIIDSRTTKYAESVKGRFTISRDNAKNTVYLQMNSLKPEDTAVYYCNALALGTDQSSTFDSWGQGTQVTVSS
notes: Nanobody
Turning to B11, the binding result in assay [1] is reported as “binds”.

B12: 169-B12 (VHH)
VHH: EVQLVESGGGLVQAGGSLRLSCAASGSIFSINAMGWYRQAPGNQRDLVAAITSGDSTKYADFVKGRFTISRDNAKNTVYLQMNSLKPEDTAVYYCAAELLGKWYWGQGTQVTVSS
notes: Nanobody
Turning to B12, the binding result in assay [1] was “binds”.

B13: 169-E12 (VHH)
VHH: EVQLVESGGGLVQAGGSLRLSCAASGSIFSINTMGWYRQAPGNQRDLVAAITNGGSTKYVDSVKGRFTISRDNAKNTVYLQMNSLKPEDTAVYYCAAESLGRWGWGQGTQVTVSS
notes: Nanobody
For the molecule B13, the binding result in assay [1] is given as “binds”.

B14: 166-E12 (VHH)
VHH: KVQLVESGGGLVQAGGSLRLSCAASGFTFGSTTIGWFRQAPGKEREGVSCISTGDGSTYYAESVKGRFTISSDNAKNTVYLQMNSLKPEDTAVYYCALDQAPMWSSWSAPYEYDYWGQGTQVTVSS
notes: Nanobody
Turning to B14, in assay [3], the binding result is “binds”.

B15: 162-H10 (VHH)
VHH: EVQLVESGGGLVQPGGSLRLSCAASGFTLDDYAVGWFRQAPGKEREGVSCIGSSYGSTYYADSVKGRFTISRDNAKNTVYLQMNSLKPEDTAVYYCAVQGYSGGYYYTCEDSADFGFWGQGTQVTVSS
notes: Nanobody
For B15, in assay [2], the binding result was “binds”.

B16: 163-E7 (VHH)
VHH: EVQLVESGGGLVQPGGSLRLSCAASGFTFSDYSMSWVRQAPGKGLEWVSAISGGGEVTTYADSVKGRFTISRDNAKNTLYLQMSSLKPEDTALYYCAEHLNFYSVSVRSSPTSQGTQVTVSS
notes: Nanobody
B16: the binding result in assay [2] was “binds”.

B17: 166-D4 (VHH)
VHH: EVQLVESGGGLVQAGGSLRLSCVASGRIFTNTAMGWYRQAPGKWRELVATIYSGGSTKYIDSVKGRFIISRDNTRNTVHLQMNSLKPEDTAVYYCNTVGAGSYWGQGAQVTVSS
notes: Nanobody
With B17, the binding result in assay [3] is listed as “binds”.

B18: 162-F11 (VHH)
VHH: EVQLVESGGGLVQAGGSLRLSCAASGFTFDDYAIGWFRQAPGKEREGVACISSSDGSTYYADSVKGRFTISSDNAKNTVYLQMNSLKPEDTAVYSCSAGSVAGCIPYYWGQGTQVTVSS
notes: Nanobody
For the molecule B18, the binding result in assay [2] is “binds”.

Values taken from patent US20120076796A1 (Ablynx, published 2012).
